US7105166

Columns and labels:
[1] = target: B7 antigen (B7-1, CD80) expressed on cells (human) (UniProt P33681); experiment: enzyme immunoassay on fixed B7-1+ CHO cells
[2] = target: B7 antigen (B7-1, CD80) expressed on cells (human) (UniProt P33681); experiment: B7-1+ CHO cell enzyme immunoassay; binding activity relative to CTLA4Ig, from the concentrations giving the same A450

Sequence of B7 antigen (B7-1, CD80) expressed on cells (human) (P33681 35-288): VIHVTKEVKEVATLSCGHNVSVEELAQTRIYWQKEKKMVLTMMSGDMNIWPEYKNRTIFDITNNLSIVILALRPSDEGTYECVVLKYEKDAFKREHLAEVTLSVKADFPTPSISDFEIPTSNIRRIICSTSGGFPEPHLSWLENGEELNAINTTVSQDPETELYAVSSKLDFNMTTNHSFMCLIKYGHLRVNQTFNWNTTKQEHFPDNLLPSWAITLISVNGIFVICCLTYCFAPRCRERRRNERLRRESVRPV

% of wild type binding [1] | % B7 binding activity [2] | % binding activity relative to CTLA4Ig [1] | Binder
60% | 56% |  | CTLA4/CD28Ig hybrid fusion protein HS8 (Fc fusion, not shown: a dimerising Fc or GST) NKILVKQSPMLVAYDNAYNLSCKYASPGKATEFRASLHKGLDSAVEVCVVYGNYSQQLQVYSKTGFNCDGKLGNESVTFYLQNLYVNQTDIYFCKIELMYPPPYYLGIGNGTQIHVKGKHLCPS
 | 44% | 44% | CTLA4/CD28Ig hybrid fusion protein HS7 (Fc fusion, not shown: a dimerising Fc or GST) NKILVKQSPMLVAYDNAYNLSCKYASPGKATEFRASLHKGLDSAVEVCVVYGNYSQQLQVYSKTGFNCDGKLGNESVTFYLQNLYVNQTDIYFCKIELMYPPPYYLGIGNGTQIYVIDPEPCPDSD
 | 5% |  | CTLA4/CD28Ig hybrid fusion protein HS4-B (Fc fusion, not shown: a dimerising Fc or GST) NKILVKQSPMLVAYDNAYNLSCKYSYNLFSREFRASLHKGLDSAVEVCVVYGNYSQQLQVYSKTGFNCDGKLGNESVTFYLQNLYVNQTDIYFCKIEVMYPPPYLDNEKSNGTIIYVIDPEPCPDSD
 | 5% |  | CTLA4/CD28Ig hybrid fusion protein HS9 (Fc fusion, not shown: a dimerising Fc or GST) NKILVKQSPMLVAYDNAYNLSCKYASPGKATEFRASLHKGLDSAVEVCVVYGNYSQQLQVYSKTGFNCDGKLGNESVTFYLQNLYVNQTDIYFCKIEVMYPPPYLDNEKSNGTIIYVIDPEPCPDSD
